Assay results from the supplement of paper PMC10126150.
± gives the standard deviation of the averaged measurements.

Tested on: ATP
Assay: switch fluorescence ratio, 500 uM ATP over buffer (Cy3 cluster intensity, sum of 5 cycles each) (fold (ratio)); higher = stronger signal-on switching upon ATP binding; sequences stand for … in TCGTCGGCAGCGTCAGATGTGTATAAGAGACAGTTTTTTTTTTTTTTTTTTTTTTTTT…TC
Conditions: aptamer strand: ATP DNA aptamer (quencher-CACCTGGGGGAGTATTGCGGAGGAAGG + anchor), 100 nM annealed; ATP concentration: 500 uM
Method in brief: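 Five buffer/ATP imaging cycles were run on Cy3-labelled switching-strand clusters on a modified Illumina MiSeq flow-cell, with NaOH stripping and re-annealing between cycles. In each cycle, clusters annealed to 100 nM quencher-labelled ATP aptamer were imaged in selection buffer, then after 15 min with 500 uM ATP at 22 °C. Per cluster, the fluorescence ratio is summed target-cycle over summed buffer-cycle Cy3 intensity, averaged per switch-domain sequence. Only clusters within 100-1000 RFU were kept.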
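Note: ATP exposure 15 min at 22 °C before imaging.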

| Sequence | switch fluorescence ratio |
| --- | --- |
| CATAACGTAC | 1.97 ± 0.21 |
| CATAAGATCC | 0.994 ± 0.025 |
| CATAAGTTAT | 1.02 ± 0.02 |
| CATAATGGTG | 1.02 ± 0.013 |
| CATACGTAGT | 1.01 ± 0.034 |
| CATACTTTTT | 1.02 ± 0.018 |
| CATAGAGTTG | 1.03 ± 0.084 |
| CATAGCCGGT | 1.012 ± 0.0031 |
| CATAGCGATA | 3.48 ± 0.28 |
| CATAGGCATT | 1.03 ± 0.016 |
| CATAGGCCGT | 1.03 ± 0.047 |
| CATAGGGCAG | 1.03 ± 0.012 |
| CATAGGGGCG | 0.984 ± 0.023 |
| CATAGTTGCG | 1.02 ± 0.04 |
| CATAGTTGTT | 1.025 ± 0.0018 |
| CATAGTTTTT | 1.02 ± 0.025 |
| CATATACGAG | 1.11 ± 0.015 |
| CATATCATAC | 1.079 ± 0.0078 |
| CATATCTAAG | 1.002 ± 0.0019 |
| CATATCTAGC | 0.997 ± 0.034 |
| CATATGATTT | 0.993 ± 0.019 |
| CATATGGGCG | 1.03 ± 0.064 |
| CATATTATGT | 1.02 ± 0.011 |

| Sequence | switch fluorescence ratio |
| --- | --- |
| CATCATTATA | 0.9866 ± 0.0079 |
| CATCCTTTTA | 1.054 ± 0.0037 |
| CATCGATGGT | 1.004 ± 0.0026 |
| CATCGATGTT | 1.025 ± 0.0064 |
| CATCGGCCGC | 1.0223 ± 0.00032 |
| CATCGGCGAT | 1.56 ± 0.038 |
| CATCGGGTAG | 0.996 ± 0.02 |
| CATCGTAATT | 1.07 ± 0.042 |
| CATCGTGACT | 0.994 ± 0.028 |
| CATCGTGCTG | 0.978 ± 0.052 |
| CATCGTGGTA | 1.04 ± 0.11 |
| CATCTATTTT | 1 ± 0.035 |
| CATCTCGTTT | 1.02 ± 0.042 |
| CATCTGGGCA | 1.03 ± 0.013 |
| CATCTGGTGC | 1.63 ± 0.19 |
| CATCTTCGCT | 1.0246 ± 7.4e-05 |
| CATCTTGAAA | 1.028 ± 0.0097 |
| CATGAAGGTA | 0.9566 ± 0.0087 |
| CATGAATGGG | 1.01 ± 0.032 |
| CATGAATTTT | 0.982 ± 0.047 |
| CATGACGGTT | 0.978 ± 0.046 |
| CATGAGGGGG | 1.01 ± 0.059 |
| CATGAGTTGG | 0.966 ± 0.041 |

| Sequence | switch fluorescence ratio |
| --- | --- |
| CATGATACGG | 1.03 ± 0.011 |
| CATGATGCTG | 1.01 ± 0.033 |
| CATGATGGAG | 0.999 ± 0.032 |
| CATGCGCTGG | 1.17 ± 0.13 |
| CATGCTGCGG | 0.999 ± 0.026 |
| CATGCTGGGC | 1.0235 ± 0.00067 |
| CATGCTGTA | 0.981 ± 0.025 |
| CATGGCCAGG | 1.06 ± 0.079 |
| CATGGCGAAG | 1 ± 0.034 |
| CATGGCGGAG | 1.03 ± 0.023 |
| CATGGGATGG | 1.01 ± 0.0074 |
| CATGGGGAAG | 1.02 ± 0.011 |
| CATGGGGCGC | 1.012 ± 0.0071 |
| CATGGGTTCG | 1 ± 0.0066 |
| CATGGGTTTG | 0.9923 ± 0.0031 |
| CATGGTTGGG | 0.984 ± 0.037 |
| CATGGTTTTG | 1 ± 0.023 |
| CATGTAATTG | 1.02 ± 0.015 |
| CATGTAGTA | 0.987 ± 0.028 |
| CATGTATGGG | 0.9833 ± 0.0095 |
| CATGTCTGCT | 0.9777 ± 0.0032 |
| CATGTGCGAG | 1.01 ± 0.021 |
| CATGTGGGGG | 0.985 ± 0.027 |

| Sequence | switch fluorescence ratio |
| --- | --- |
| CATGTGTGGG | 1.01 ± 0.029 |
| CATGTTGGCT | 1.012 ± 0.0039 |
| CATGTTGGTT | 0.992 ± 0.032 |
| CATTAAGGTT | 0.996 ± 0.01 |
| CATTAATCAT | 0.995 ± 0.048 |
| CATTAATGTA | 0.9977 ± 0.0033 |
| CATTAGAGAC | 1.03 ± 0.012 |
| CATTAGGCAA | 1.696 ± 0.0032 |
| CATTAGGCTG | 1.02 ± 0.015 |
| CATTAGGTGT | 1.16 ± 0.037 |
| CATTATCACG | 1.075 ± 0.01 |
| CATTATGGGA | 1.009 ± 0.0063 |
| CATTCCCTGA | 0.981 ± 0.011 |
| CATTCGGGGG | 0.997 ± 0.016 |
| CATTCGTCGC | 1.12 ± 0.026 |
| CATTCTGTGT | 1.019 ± 0.0023 |
| CATTGAAAGA | 1.01 ± 0.038 |
| CATTGAAGTG | 0.986 ± 0.053 |
| CATTGAATAT | 0.996 ± 0.043 |
| CATTGAATCT | 1.02 ± 0.02 |
| CATTGACCTT | 1.23 ± 0.067 |
| CATTGCAGTG | 1.03 ± 0.02 |
| CATTGCTTTT | 0.991 ± 0.024 |

| Sequence | switch fluorescence ratio |
| --- | --- |
| CATTGGACCT | 1.29 ± 0.089 |
| CATTGGAGCA | 1.027 ± 0.0086 |
| CATTGGGGAG | 1.01 ± 0.026 |
| CATTGGGGGA | 0.983 ± 0.014 |
| CATTGGGTTG | 0.9633 ± 0.0019 |
| CATTGGTAAT | 1.018 ± 0.0059 |
| CATTGGTCAT | 0.995 ± 0.045 |
| CATTGTAAAG | 1.02 ± 0.033 |
| CATTGTGGGT | 0.975 ± 0.019 |
| CATTGTTATC | 1.08 ± 0.085 |
| CATTGTTGAC | 0.961 ± 0.02 |
| CATTTAATGG | 0.997 ± 0.028 |
| CATTTATAAT | 1.03 ± 0.02 |
| CATTTATCCT | 1.07 ± 0.024 |
| CATTTATGGG | 1.015 ± 0.0031 |
| CATTTCAGGT | 1.03 ± 0.069 |
| CATTTCGGGT | 0.992 ± 0.034 |
| CATTTCTGAG | 1.008 ± 0.0061 |
| CATTTCTGTT | 1.004 ± 0.0047 |
| CATTTGAAGA | 1.01 ± 0.019 |
| CATTTGACGG | 0.995 ± 0.024 |
| CATTTGAGGG | 0.988 ± 0.034 |
| CATTTGGAAG | 1.02 ± 0.061 |

| Sequence | switch fluorescence ratio |
| --- | --- |
| CATTTGGGCT | 1.03 ± 0.039 |
| CATTTTAGGC | 1.04 ± 0.067 |
| CATTTTCTAA | 1.04 ± 0.047 |
| CATTTTGGGA | 0.979 ± 0.03 |
| CATTTTGGTC | 1.002 ± 0.0039 |
| CATTTTGTGC | 0.988 ± 0.052 |
| CATTTTGTTT | 0.998 ± 0.054 |
| CATTTTTGGG | 0.98798 ± 0.00089 |
| CATTTTTTTT | 0.995 ± 0.02 |
| CCAAAAGGTT | 1.01 ± 0.017 |
| CCAAAATTGG | 1.018 ± 0.0052 |
| CCAAAGAATT | 1.03 ± 0.059 |
| CCAAAGATAT | 1.09 ± 0.03 |
| CCAAAGCCTC | 2.69 ± 0.21 |
| CCAAAGGGCC | 1.01 ± 0.071 |
| CCAAAGGGGT | 1.06 ± 0.046 |
| CCAAAGTACG | 1.25 ± 0.018 |
| CCAACATGGG | 1.03 ± 0.02 |
| CCAACGGCCA | 1.2 ± 0.049 |
| CCAACGGGGG | 1.061 ± 0.0019 |
| CCAAGCAGGG | 1.66 ± 0.059 |
| CCAAGGGAAA | 0.9822 ± 0.0032 |
| CCAAGGGGGA | 1.09 ± 0.1 |

| Sequence | switch fluorescence ratio |
| --- | --- |
| CCAAGGTTCG | 0.945 ± 0.053 |
| CCAAGTAATT | 1.2 ± 0.019 |
| CCAAGTAGGC | 1.13 ± 0.022 |
| CCAAGTGAC | 1.26 ± 0.028 |
| CCAAGTGCGG | 1.01 ± 0.029 |
| CCAAGTTGCC | 0.9929 ± 0.0092 |
| CCAATATTTA | 0.994 ± 0.03 |
| CCAATCAGGT | 1.08 ± 0.097 |
| CCAATGGTGA | 1.16 ± 0.068 |
| CCAATTAATC | 1.03 ± 0.032 |
| CCAATTTTTA | 1.01 ± 0.03 |
| CCACCTATCT | 1.09 ± 0.052 |
| CCACGAATT | 1.012 ± 0.0096 |
| CCACGGCAGG | 1.229 ± 0.011 |
| CCACGGGATT | 1.08 ± 0.035 |
| CCACTAATGG | 1.03 ± 0.013 |
| CCACTATTAG | 1.03 ± 0.021 |
| CCACTCCGGG | 1.192 ± 0.0055 |
| CCACTCTGGG | 0.9984 ± 0.0068 |
